In article PMC8140593, “Chemical synthesis of peptidoglycan mimetic–disaccharide-tetrapeptide conjugate and its hydrolysis by bacteriophage T5, RB43 and RB49 L-alanyl-D-glutamate peptidases” (PeerJ, 2021):

Experiment: Solubility in water
Type: physicochemical

Question: For `CC(=O)N[C@H]1[C@H](O[C@H]2[C@H](O[C@H](C)C(=O)N[C@@H](C)C(=O)N[C@H](CCC(=O)N[C@@H](C)C(=O)N[C@H](C)C(=O)O)C(=O)O)[C@@H](NC(C)=O)C(O)O[C@@H]2CO)O[C@H](CO)[C@@H](O)[C@@H]1O` (stereo partly drawn) [GMTP, N-acetylglucosaminyl-β(1-4)-N-acetylmuramoyl-l-alanyl-γ-d-glutamyl-l-alanyl-d-alanine], which solubility in water is on record?
Answer: water soluble
